One series deals with T1, hsst5 (Homo sapiens, UniProt P35346).
T1 construct: expressed in transfected cells
Nature of the series: Somatostatin receptor radioligand binding assay, hsst5. The note with it: hsst5 Ki, CHO-K1 membranes, [125I-Tyr11]SS-14. In outline:
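Membranes from CHO-K1 cells stably expressing hsst5, incubated 90 min at 25 °C with 0.05 nM [125I-Tyr11]SS-14 in 50 mM HEPES pH 7.4 with BSA, MgCl2 and protease inhibitors. Bound ligand collected by filtration. Non-specific binding defined with 1000 nM SS-14.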

A short description of series [1]: Solubility of Example 1 at various concentrations of DMA and PEG400. It is filed as physicochemical. How it is done: A compound that may advantageously be used to practice the invention can be tested to determine its solubility at different DMA and PEG400 concentrations using the following procedure.
To about 1 mg of Example 1 were added increasing volumes of the above solvents or buffers. When a soluble volume was reached, the concentration was calculated by weight/volume. When Example 1 was not soluble, the solution was centrifuged and the supernatant was analyzed by HPLC to determine the concentrations. The determined concentration is treated as the solubility of Example 1 in that solvent or buffer.
The solution pHs were checked. They were about pH 7. No further adjustment was done.

Values after ≈ are worked out from the molar mass of the structure shown.

T1 sequence (P35346 whole entry): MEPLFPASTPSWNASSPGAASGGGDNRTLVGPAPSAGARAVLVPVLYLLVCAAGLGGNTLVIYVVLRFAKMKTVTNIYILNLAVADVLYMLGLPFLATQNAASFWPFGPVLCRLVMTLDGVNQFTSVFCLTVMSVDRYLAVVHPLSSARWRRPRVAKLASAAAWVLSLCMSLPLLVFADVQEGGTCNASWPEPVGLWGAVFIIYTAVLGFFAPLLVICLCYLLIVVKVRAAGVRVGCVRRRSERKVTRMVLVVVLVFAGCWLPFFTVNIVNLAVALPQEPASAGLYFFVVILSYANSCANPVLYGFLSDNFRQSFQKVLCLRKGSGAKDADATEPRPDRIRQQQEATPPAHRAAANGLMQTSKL

Turning to `CCCN1C[C@H](CSCC(=O)NCCCC[C@@H](NC(=O)CSC[C@@H]2C[C@@H]3c4cccc5[nH]cc(c45)C[C@H]3N(CCC)C2)C(=O)N[C@H]2CSSC[C@@H](C(=O)N[C@H](C(N)=O)[C@@H](C)O)NC(=O)[C@H](CC)NC(=O)[C@H](CCCCN)NC(=O)[C@@H](Cc3c[nH]c4ccccc34)NC(=O)[C@H](Cc3ccc(O)cc3)NC2=O)C[C@@H]2c3cccc4[nH]cc(c34)C[C@H]21` [Example 1, Dop2-DLys(Dop2)-cyclo[Cys-Tyr-DTrp-Lys-Abu-Cys]-Thr-NH2], the affinity at hsst5 corresponds to a Ki of 41.5 nM. Moreover, the solubility (commonly how much of the substance goes into solution per volume) in series [1] (5% DMA in PBS, PBS pH 7, 5% DMA, by HPLC) is 130 µg/mL (≈ 76.7 µM); in series [1] (5% DMA in water, Water pH 7, 5% DMA), over 100000 µg/mL; in series [1] (5% PEG400 in PBS, PBS pH 7, 5% PEG400, by HPLC), 50 µg/mL (≈ 29.5 µM); in series [1] (5% PEG400 in water, Water pH 7, 5% PEG400), over 50000 µg/mL; in series [1] (10% DMA in PBS, PBS pH 7, 10% DMA, by HPLC), 480 µg/mL (≈ 283 µM); in series [1] (10% DMA in water, Water pH 7, 10% DMA) it was over 100000 µg/mL. Moreover, the solubility in series [1] (10% PEG400 in PBS, PBS pH 7, 10% PEG400, by HPLC) was 330 µg/mL (≈ 195 µM); in series [1] (10% PEG400 in water, Water pH 7, 10% PEG400), over 50000 µg/mL; in series [1] (20% DMA in PBS, PBS pH 7, 20% DMA, by HPLC), 780 µg/mL (≈ 460 µM); in series [1] (20% DMA in water, Water pH 7, 20% DMA) it was over 100000 µg/mL; in series [1] (20% PEG400 in PBS, PBS pH 7, 20% PEG400, by HPLC), 750 µg/mL (≈ 443 µM); in series [1] (20% PEG400 in water, Water pH 7, 20% PEG400) it was over 50000 µg/mL. Besides, the solubility in series [1] (30% DMA in PBS, PBS pH 7, 30% DMA, by HPLC) is 4200 µg/mL (≈ 2480 µM); in series [1] (30% DMA in water, Water pH 7, 30% DMA), over 100000 µg/mL; in series [1] (30% PEG400 in PBS, PBS pH 7, 30% PEG400, by HPLC), 2980 µg/mL (≈ 1760 µM); in series [1] (30% PEG400 in water, Water pH 7, 30% PEG400) it was over 50000 µg/mL; in series [1] (40% DMA in PBS, PBS pH 7, 40% DMA), over 50000 µg/mL; in series [1] (40% DMA in water, Water pH 7, 40% DMA), over 100000 µg/mL. Further, the solubility was 3500 µg/mL (≈ 2070 µM) in series [1] (40% PEG400 in PBS, PBS pH 7, 40% PEG400, by HPLC); over 50000 µg/mL in series [1] (40% PEG400 in water, Water pH 7, 40% PEG400); 40 µg/mL (≈ 23.6 µM) in series [1] (PBS (0% DMA), PBS pH 7, 0% DMA, by HPLC); 860 µg/mL (≈ 508 µM) in series [1] (water (0% DMA), Water pH 7, 0% DMA, by HPLC). The “Solubility in water based versus PBS based solvents” value in series [1] (water vs PBS) is “much more soluble in water based solvents than in PBS based solvents”.

The record behind these values is US20110065632A1, “PHARMACEUTICAL COMPOSITIONS OF SOMATOSTATIN-DOPAMINE CONJUGATES” (priority 2008, published 2011).
